Assay results: article PMC6648325
Values joined by “and” are separate entries in the source; they are usually repeats but may differ in a detail not shown here. Equal values may be shown once.

T1: Cys106-oxidized DJ-1 recombinant protein (human), Q99497
T1 chain: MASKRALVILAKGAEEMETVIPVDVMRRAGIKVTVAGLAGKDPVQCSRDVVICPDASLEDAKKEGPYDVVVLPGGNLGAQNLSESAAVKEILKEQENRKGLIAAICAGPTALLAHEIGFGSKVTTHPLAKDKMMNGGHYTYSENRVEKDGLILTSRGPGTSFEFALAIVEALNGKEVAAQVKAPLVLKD

T2: DJ-1 recombinant protein (human), Q99497
T2 chain: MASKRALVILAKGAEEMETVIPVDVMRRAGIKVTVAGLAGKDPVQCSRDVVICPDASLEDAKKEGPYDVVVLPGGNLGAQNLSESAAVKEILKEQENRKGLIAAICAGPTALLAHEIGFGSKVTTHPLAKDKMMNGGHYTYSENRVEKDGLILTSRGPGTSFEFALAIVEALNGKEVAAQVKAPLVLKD

B1: Cys106-oxidized DJ-1 recombinant protein, Q99497 1-189 (natural protein)
chain: MASKRALVILAKGAEEMETVIPVDVMRRAGIKVTVAGLAGKDPVQCSRDVVICPDASLEDAKKEGPYDVVVLPGGNLGAQNLSESAAVKEILKEQENRKGLIAAICAGPTALLAHEIGFGSKVTTHPLAKDKMMNGGHYTYSENRVEKDGLILTSRGPGTSFEFALAIVEALNGKEVAAQVKAPLVLKD
B2: DJ-1 recombinant protein, Q99497 1-189 (natural protein)
chain: MASKRALVILAKGAEEMETVIPVDVMRRAGIKVTVAGLAGKDPVQCSRDVVICPDASLEDAKKEGPYDVVVLPGGNLGAQNLSESAAVKEILKEQENRKGLIAAICAGPTALLAHEIGFGSKVTTHPLAKDKMMNGGHYTYSENRVEKDGLILTSRGPGTSFEFALAIVEALNGKEVAAQVKAPLVLKD

Experiments:
Conditions in all cases: remark: other sources report otherwise
[1] = target: T1, Cys106-oxidized DJ-1 recombinant …; assay: high-speed atomic force microscopy
[2] = target: T1, Cys106-oxidized DJ-1 recombinant …; assay: SEC
[3] = target: T1, Cys106-oxidized DJ-1 recombinant …; assay: SDS-PAGE of HMW bands
[4] = target: T2, DJ-1 recombinant protein (human), Q99497; assay: high-speed atomic force microscopy
[5] = target: T2, DJ-1 recombinant protein (human), Q99497; assay: SEC

Row | Binder | stoichiometry N [1] | stoichiometry N [2] | stoichiometry N [3] | stoichiometry N [4] | stoichiometry N [5]
1 | B1 | 4 and 6 | 2 | 2 and 4 | – | –
2 | B2 | – | – | – | 2 | 2
